Positions count from the first letter of the chain named.
B1: human monoclonal antibody 21D4 (antibody, V domains shown)
VH: EVQLVQSGAEVKKPGESLKISCKGSGYSFSSSWIGWVRQMPGKGLEWMGIIYPDDSDTRYSPSFQGQVTISADKSIRTAYLQWSSLKASDTAMYYCARHVTMIWGVIIDFWGQGTLVTVSS
VL: AIQLTQSPSSLSASVGDRVTITCRASQGISSALAWYQQKPGKAPKLLIYDASSLESGVPSRFSGSGSGTDFTLTISSLQPEDFATYYCQQFNSYPYTFGQGTKLEIK
notes: Fully human antibody from a KM mouse hybridoma, kappa light chain; also called HuMAb 21D4; parental anti-CD19 antibody 21D4
B2: 5G7-N19K (antibody, V domains shown)
VH: B1 VH with S30T, S32Y, D54G, R77N, H99G, T101S, I108M, F110V, L116T
VL: B1 VL with Y96W, L104V
notes: also called 5G7 with N-I-S changed to K-I-S
B3: 5G7-N19Q (antibody, V domains shown)
VH: B1 VH with K19Q, S30T, S32Y, D54G, R77N, H99G, T101S, I108M, F110V, L116T
VL: B1 VL with Y96W, L104V
notes: Glycosylation-site variant of 5G7; also called 5G7 with N-I-S changed to Q-I-S
B4: human monoclonal antibody 5G7 (antibody, V domains shown)
VH: B1 VH with K19N, S30T, S32Y, D54G, R77N, H99G, T101S, I108M, F110V, L116T
VL: B1 VL with Y96W, L104V
modifications: N-linked carbohydrate in the variable (Fab) region at the N-I-S motif starting at position 19
B5: human monoclonal antibody 21D4a (antibody, V domains shown)
VH: B1 VH
VL: B1 VL with Y96F, Q100P, L104V, E105D
notes: Same heavy chain as 21D4, paired with the second light chain made by the 21D4 hybridoma
B6: human monoclonal antibody 3C10 (antibody, V domains shown)
VH: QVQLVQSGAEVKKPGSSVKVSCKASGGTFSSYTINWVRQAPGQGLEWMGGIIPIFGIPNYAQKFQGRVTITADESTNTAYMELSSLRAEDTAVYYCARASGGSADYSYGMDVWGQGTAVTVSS
VL: B1 VL with A1D, L4M, A32W, G41E, L46S, D50A, E55Q, F91Y, N92K, S93R
B7: human monoclonal antibody 13F1 (antibody, V domains shown)
VH: EVQLVQSGAEVKKPGESLQISCKGSGYTFTNYWIAWVRQMPGKGLEWMGIIYPGDSDTRYSPSFQGQVTISADKSISTAYLQWSGLKASDTAMYYCARQGYSSGWRSYYGMGVWGQGTTVTVSS
VL: B1 VL with Y96H
B8: human monoclonal antibody 47G4 (antibody, V domains shown)
VH: QVQLVQSGAEVKKPGSSVKVSCKDSGGTFSSYAISWVRQAPGQGLEWMGGIIPIFGTTNYAQQFQGRVTITADESTSTAYMELSSLRSEDTAVYYCAREAVAADWLDPWGQGTLVTVSS
VL: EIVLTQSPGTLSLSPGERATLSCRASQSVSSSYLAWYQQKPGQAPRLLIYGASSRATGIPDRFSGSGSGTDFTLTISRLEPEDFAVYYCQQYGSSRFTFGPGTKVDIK
notes: Human kappa antibody; It was 125I-labelled in the Scatchard assay; also called HuMAb 47G4; CD19 HuMAb 47G4

The binders below were run against T1, human CD19 expressed on the cell surface (human, UniProt P15391 20-556) (assay: Flow cytometry on CHO cells transfected with human CD19, GMFI).
T1 construct: CHO cells were transfected with the full-length cDNA encoding the transmembrane form of CD19; Raji, Daudi and ARH-77 cells carry endogenous CD19; also called CD19 on Raji B tumor cells; CD19 on Daudi B tumor cells
T1 sequence: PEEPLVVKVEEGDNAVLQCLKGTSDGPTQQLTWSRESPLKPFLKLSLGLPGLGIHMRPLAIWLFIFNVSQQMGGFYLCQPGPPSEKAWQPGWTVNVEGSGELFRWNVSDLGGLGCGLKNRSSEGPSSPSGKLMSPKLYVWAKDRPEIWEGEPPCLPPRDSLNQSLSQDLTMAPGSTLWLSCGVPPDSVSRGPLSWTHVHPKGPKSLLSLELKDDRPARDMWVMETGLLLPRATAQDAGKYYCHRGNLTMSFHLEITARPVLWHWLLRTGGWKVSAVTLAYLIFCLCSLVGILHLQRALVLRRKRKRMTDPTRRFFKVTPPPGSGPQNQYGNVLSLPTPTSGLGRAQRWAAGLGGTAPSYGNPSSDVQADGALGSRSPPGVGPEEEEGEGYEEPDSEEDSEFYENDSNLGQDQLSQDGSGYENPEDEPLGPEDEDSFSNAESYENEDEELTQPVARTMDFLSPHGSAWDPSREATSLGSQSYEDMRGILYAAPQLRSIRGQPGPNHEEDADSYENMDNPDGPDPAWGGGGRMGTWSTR
Description: (§1) Binding of the CD19 HuMAbs by flow cytometry to the B cell tumor lines Raji and Daudi, or to a CHO-CD19 transfected cell line was assessed. CHO cells were transfected with an expression plasmid containing the full length cDNA encoding the transmembrane form of CD19. […] A known murine anti-CD19 antibody was used as a positive control. The cells were washed and detected by either a phycoerythrin-labeled anti-human or anti-mouse secondary antibody and analyzed by flow cytometry. The results for binding to the CHO-CD19 cell line, Daudi B cell line, Raji B cell line and an expanded binding set against the Raji B cell line are shown in FIGS. 25A, 25B, 25C and 25D, respectively. […] All results are shown as measured by the geometric mean fluorescent intensity (GMFI) of staining.
In the case of B1, the “EC50 (read off the curve)” value is reported as roughly 0.1 µg/mL.

These binders were tested against T1, human CD19 expressed on the cell surface (assay: FACS competition on Raji cells: unlabeled antibody titrated against biotinylated 21D4a at 0.3 ug/mL, Geo Mean (PE); unit from the concentration axis).
Work on B2 yielded an EC50 of 2.38 nM.
In the case of B3, the EC50 is reported as 2.63 nM.
B4 gave an EC50 of 2.85 nM.
B1 gave an EC50 of 0.832 nM.
B5 showed an EC50 of 0.767 nM.
For B6, the EC50 was 0.686 nM.
Binder B7 has an EC50 of 1.97 nM.

Each binder was assayed against T1, human CD19 expressed on the cell surface (assay: Scatchard analysis; 125I-labelled antibody on Raji cells, 4 °C).
Description: Raji cells were obtained from ATCC (Accession #CCL-86) and grown in RPMI containing 10% fetal bovine serum (FBS). The cells were washed twice with RPMI containing 10% FBS at 4° C. and the cells were adjusted to 4×10⁷ cells/ml in RPMI media containing 10% fetal bovine serum (binding buffer containing 24 mM Tris pH 7.2, 137 mM NaCl, 2.7 mN KCl, 2 mM glucose, 1 mM CaCl₂, 1 mM MgCl₂, 0.1% BSA). Millipore plates (MAFB NOB) were coated with 1% nonfat dry milk in water and stored a 4° C. overnight. The plates were washed with binding buffer and 25 μl of unlabeled antibody (1000-fold excess) in binding buffer was added to control wells in a Millipore 96 well glass fiber filter plate (non-specific binding NSB). Twenty-five microliters of buffer alone was added to the maximum binding control well (total binding). […] The plates were incubated for 2 hours at 200 RPM on a shaker at 4° C. At the completion of the incubation the Millipore plates were washed three times with 0.2 ml of cold wash buffer (24 mM Tris pH 7.2, 500 mM NaCl, 2.7 mN KCl, 2 mM glucose, 1 mM CaCl₂, 1 mM MgCl₂, 0.1% BSA). The filters were removed and counted in a gamma counter. Evaluation of equilibrium binding was performed using single site binding parameters with the Prism software (San Diego, Calif.).
B1 gave a Kd of roughly 2.14 nM.
For B8, the Kd was roughly 12 nM.

Each binder was assayed against T1, human CD19 expressed on the cell surface (assay: Raji direct binding FACS, Geo Mean; unit from the concentration axis).
Description: as §1
B2 was tested, and the EC50 was 0.224 µg/mL.
B3 was tested, and the EC50 was 0.217 µg/mL.
Binder B4 has an EC50 of 0.188 µg/mL.
Binder B1 has an EC50 of 0.141 µg/mL.
Work on B5 yielded an EC50 of 0.129 µg/mL.
For B6, the EC50 was 0.24 µg/mL.
B7 showed an EC50 of 0.266 µg/mL.

These binders were tested against T1, human CD19 expressed on the cell surface (assay: FACS competition on Raji cells: unlabeled antibody titrated against biotinylated 21D4 at 0.3 ug/mL, Geo Mean (PE); unit from the concentration axis).
B2 gave an EC50 of 2.1 nM.
B3 was tested, and the EC50 was 2.16 nM.
Binder B4 has an EC50 of 2.45 nM.
For B1, the EC50 was 0.655 nM.
B5 showed an EC50 of 0.694 nM.
B6 showed an EC50 of 0.628 nM.
For B7, the EC50 was 1.99 nM.

Reference: patent publication US20100104509A1 (Bristol-Myers Squibb, published 2010)
